Measured values reported in US11685791B2, “Antibody binding specifically to N-terminal region of lysyl-tRNA synthetase exposed on cell membrane” (Zymedi Co., Ltd., priority 2017, dated 2023).

Columns and labels:
KRS 1-207 aa = target: T1, KRS 1-207 aa (Homo sapiens, UniProt Q15046); assay: SPR (Biacore 2000) binding of IgGs to immobilized KRS; details: immobilized KRS 185 RU, antibody 6.25-100 nM
T1 construct: to the antigen (KRS 1-207 aa)
Protocol: The quantitative binding ability of the purified antibody proteins (N3 IgG and N5 IgG) to the antigen (KRS 1-207 aa) were measured using Biacore 2000 SPR (surface plasmon resonance) (GE healthcare, US) biosensor. After KRS was immobilized on a sensor chip (CM5, GE healthcare, US), antibody proteins (6.25-100 nM), which were serially diluted with HES buffer solution (10 mM HEPES, pH 7.4, 150 mM NaCl, 3 mM EDTA, 0.005% surfactant P20), were allowed to flow at a rate of 30 μl/min for 3 min, and 1 M NaCl/20 mM NaOH was allowed to flow at a rate of 30 μl/min for 3 min, thereby inducing the dissociation of proteins bound to the antigen. Mock IgG was used as control. Specific experiment conditions are as follows:
Immobilized level: 185 RU
Antibody: N3 IgG and N5 IgG
Running buffer: HBS-N buffer
Regeneration: 2 M NaCl, 20 mM NaOH (flow 30 ul/min 1 min)
The affinity was obtained from the kinetic rate constants (ka and kd) and equilibrium dissociation constants (KD) by using BIA evaluation ver. 3.2 software. FIGS. 6A-6B show SPR graph results of N3 IgG and N5 IgG, respectively. It was confirmed from FIGS. 6A-6B and Table 3 that N3 IgG and N5 IgG of the present invention has high specific binding ability to the KRS N-terminal region.

KRS = target: T2, KRS (Homo sapiens, UniProt Q15046); assay: Western blotting and immunoprecipitation of converted IgGs; assay type: binding; details: HCT116 cell lysate
T2 construct: endogenous in cells; host or cells: HCT116
T2 sequence (Q15046 whole entry): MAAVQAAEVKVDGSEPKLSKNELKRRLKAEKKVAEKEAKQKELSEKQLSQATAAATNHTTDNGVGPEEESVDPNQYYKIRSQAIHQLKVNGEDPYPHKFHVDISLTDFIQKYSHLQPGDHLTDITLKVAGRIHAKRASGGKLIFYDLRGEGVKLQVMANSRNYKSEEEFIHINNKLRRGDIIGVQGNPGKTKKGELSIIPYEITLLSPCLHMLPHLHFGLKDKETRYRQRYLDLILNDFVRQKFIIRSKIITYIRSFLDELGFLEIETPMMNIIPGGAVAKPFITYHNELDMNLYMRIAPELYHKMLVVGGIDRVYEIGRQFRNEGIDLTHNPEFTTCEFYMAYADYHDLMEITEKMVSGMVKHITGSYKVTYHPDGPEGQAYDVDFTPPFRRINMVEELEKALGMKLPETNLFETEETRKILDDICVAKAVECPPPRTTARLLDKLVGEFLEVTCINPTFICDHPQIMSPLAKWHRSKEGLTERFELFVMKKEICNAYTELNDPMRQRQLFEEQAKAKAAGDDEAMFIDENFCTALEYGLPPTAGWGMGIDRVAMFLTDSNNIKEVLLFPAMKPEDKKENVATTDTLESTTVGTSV

A549 cells = assay: MTT cytotoxicity assay; assay type: cell-based, human; details: 0, 50, 100, 500 nM, 24 h, serum-free media
Protocol: MTT assay was performed on N3 IgG as a representative. A549 cells were seeded in 96-well plates (5,000 cell/well) and incubated. The cells were washed with serum-free media, and then treated with human mock IgG and N3 IgG of 0, 50, 100, 500 nM (in serum-free media). After 24-h incubation, MTT solution was added with 50 μg/well, followed by incubation for 4 h. After MTT solution was removed, the wells were treated with 100 ul of DMSO, and then the absorbance was measured at 570 nm.

[1] = system: mouse breast cancer 4T-1 cells; assay: In-vivo cancer metastasis model (lung metastasis)
Protocol: Since KRS can accelerate cell migration through 67LR associated with cancer metastasis, tumor (cancer) animal models were constructed using mouse breast cancer 4T-1 cells (Korean Cell Line Bank), which are well metastasizable to the lung. Orthotopic breast cancer animal models were constructed by injecting 4×10^4 4 T1 cells into the fat pad of six 7-week old BALB/cAnCr mice (Doo Yeol Biotech).
The cancer was injected into the mammary fat pad, and after 10 days (Day 10), cancer tissues were resected from the fat pad. After one day (Day 11), N3 IgG (10 mg/kg) was administered twice a week for two weeks at intervals of 3 days (a total of four times, Days 11, 14, 18, and 21) via tail vein i.v. injection, and the same dose of control mock IgG (Thermo #31154) was also administered. One week after the completion of the entire antibody dosing schedule, that is, 28 days after cancer injection, the mice were sacrificed to take lung tissue. Upon autopsy of lung tissue, the lung was inflated by injection of a saline solution into the bronchus through a syringe, collected, and then stored in Bouin's solution (Sigma #HT10132) for 24 h. Thereafter, the metastasis nodules in each lobe of the lung were counted through a microscope.
It has been known in the foregoing literature “Dae Gyu Kim et al., (2014)” that the YH16899 compound has an effect on cancer metastasis inhibition by suppressing the interaction between 67LR and KRS. Then, the cancer metastasis inhibitory effect was compared between YH16899 and N3 IgG, the antibody of the present invention. The construction of in-vivo tumor models and the observation of lung metastasis condition were carried out by the same method as in Example <3-3>. YH16899 was orally administered at 100 mpk every day. N3 IgG was intravenously injected at difference concentrations (1 mpk, 10 mpk) through mouse tails.

[2] = system: monocyte/macrophage infiltration into lung tissues (CD68); assay: IHC staining of CD68 in lung tissues of PAH model; assay type: in vivo, rat; details: PAH rats, 1 mpk or 10 mpk, 3 weeks
Protocol: The collected lungs were fixed in paraformaldehyde (PFA) according to the ordinary procedure, and then paraffin-infiltrated and embedded through washing, dehydration, and clearing. The rat lung tissue paraffin blocks were micro-sectioned to a thickness of 6 μm, and slides were manufactured. Thereafter, staining was performed as below. The sample was first treated with xylene for 5 min three times, treated with 100% ethanol, 95% ethanol, 90% ethanol, and 70% ethanol, and DW in that order for 2 min, and washed with PBS for 5 min. After 0.3% H2O2 treatment, the sample was washed with PBS for 5 min twice. The sample was immersed in 0.01 M citrate buffer, heated, and washed with PBS-T (0.03% Tween 20). Thereafter, the sample was blocked (2% BSA & 2% goat serum in PBS) at room temperature for 30 min. The sample was stained with anti-CD68 antibody (1:200, ED1 clone, Abcam) at 4° C. overnight. The sample was washed with PBS-T for 5 min three times, and then treated with polymer-HRP anti-mouse envision kit (DAKO) at 4° C. for 1 h. The sample was washed with PBS-T three times, and then color-developed by the treatment with DAB substrate buffer and DAB chromogen 20. The stained tissue was treated with Mayer's hematoxylin (Sigma) for 1 min, and then treated with 70% ethanol, 90% ethanol, 95% ethanol, and 100% ethanol in that order for 2 min each twice. […]

T1 sequence (Q15046 1-207): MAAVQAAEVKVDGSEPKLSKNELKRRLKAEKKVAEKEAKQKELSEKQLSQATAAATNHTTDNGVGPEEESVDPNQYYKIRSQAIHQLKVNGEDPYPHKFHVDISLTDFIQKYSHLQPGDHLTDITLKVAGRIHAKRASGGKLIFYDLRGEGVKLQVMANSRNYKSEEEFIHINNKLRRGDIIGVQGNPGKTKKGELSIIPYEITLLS

B1: N3 IgG: IgG converted from N3 scFv; VH SEQ ID NO: 49, VL SEQ ID NO: 51; binds KRS N-terminal region (antibody, V domains shown)
VH: EVQLLESGGGLVQPGGSLRLSCAASGFTFSSYDMSWVRQAPGKGLEWVSAISYDNGNTYYADSVKGRFTISRDNSKNTLYLQMNSLRAEDTAVYYSARMALDFDYWGQGTLVTVSS
VL: QSVLTQPPSASGTPGQRVTISCTGSSSNIGSNYVTWYQQLPGTAPKLLIYDNSNRPSGVPDRFSGSKSGTSASLAISGLRSEDEADYYCASWDDSLSAYVFGGGTKLTVL
Work on B1 yielded a Kd (KRS 1-207 aa) of 83.4 nM, a ka (KRS 1-207 aa) of 109000 M⁻¹ s⁻¹ and a kd (KRS 1-207 aa) of 0.009055 s⁻¹. For the same molecule, the “KRS binding ability (western blotting and immunoprecipitation)” value (KRS) was “bound to KRS”, the “cytotoxicity (MTT assay)” value (A549 cells) was “no cytotoxicity” and the lung metastasis nodules ([1]; 10 mg/kg i.v. twice a week for two weeks, vs mock IgG control) was “significantly suppressed”. For the same molecule, the “laminin receptor expression in metastasis nodule sites of lung tissue” value ([1]; 10 mg/kg i.v., control vs N3 IgG treatment group) was “significantly large amount of laminin receptors were expressed in the metastasis nodule sites in control compared with the group treated with the antibody”, the lung nodule count ([1]; 1 mpk and 10 mpk i.v.) was “significantly reduced in a dose-dependent manner” and the “cancer metastasis inhibition compared with YH16899 (100 mpk)” value ([1]; 1 mpk i.v.) was “significantly inhibited cancer metastasis compared with YH16899”. The “monocyte/macrophage infiltration into lung tissues (CD68 IHC)” value [2] was “explicitly reduced”.
